Test results: paper PMC7547085, “Specific and direct modulation of the interaction between adhesion GPCR GPR56/ADGRG1 and tissue transglutaminase 2 using synthetic ligands” (Scientific Reports, 2020)

B1: mouse tissue transglutaminase 2 C-terminal D3D4 domains (mTG2 D3D4) [modified: biotin on the AVI-tag; biotin on the AVI-tag] [mouse] / mouse full-length GPR56 (GPR56 FL), wild type, on HEK293T cells [mouse] (parent complex)
chain 1: TGVAMRIRVGDSMSMGNDFDVFAHIGNDTSETRECRLLLCARTVSYNGVLGPECGTEDINLTLDPYSENSIPLRILYEKYSGCLTESNLIKVRGLLIEPAANSYLLAERDLYLENPEIKIRVLGEPKQNRKLVAEVSLKNPLSDPLYDCIFTVEGAGLTKEQKSVEVSDPVPAGDLVKARVDLFPTDIGLHKLVVNFQCDKLKSVKGYRNVIIGPA
chain 2: GSPREDFRFCGQRNQTQQSTLHYDQSSEPHIFVWNTEETLTIRAPFLAAPDIPRFFPEPRGLYHFCLYWSRHTGRLHLRYGKHDYLLSSQASRLLCFQKQEQSLKQGAPLIATSVSSWQIPQNTSLPGAPSFIFSFHNAPHKVSHNASVDMCDLKKELQQLSRYLQHPQKAAKRPTAAFISQQLQSLESKLTSVSFLGDTLSFEEDRVNATVWKLPPTAGLEDLHIHSQKEEEQSEVQAYSLLLPRAVFQQTRGRRRDDAKRLLVVDFSSQALFQDKNSSQVLGEKVLGIVVQNTKVTNLSDPVVLTFQHQPQPKNVTLQCVFWVEDPASSSTGSWSSAGCETVSRDTQTSCLCNHLTYFAVLMVSSTEVEATHKHYLTLLSYVGCVISALACVFTIAAYLCSRRKSRDYTIKVHMNLLSAVFLLDVSFLLSEPVALTGSEAACRTSAMFLHFSLLACLSWMGLEGYNLYRLVVEVFGTYVPGYLLKLSIVGWGFPVFLVTLVALVDVNNYGPIILAVRRTPERVTYPSMCWIRDSLVSYVTNLGLFSLVFLFNLAMLATMVVQILRLRPHSQNWPHVLTLLGLSLVLGLPWALVFFSFASGTFQLVILYLFSIITSFQGFLIFLWYWSMRFQAQGGPSPLKNNSDSAKLPISSGSTSSSRI

Variants of: B1
Assay: flow cytometry on cells; 5 nM TG2 D3D4 (tetramerized); GPR56 FL constructs expressed on HEK293T cells; n = 3; parent: 1; read off a plot

Question: How did the ratio to parent turn out when chain 2 A112R, chain 2 S114R was run?
Answer: ~5.3

Question: For chain 2 R79D, which ratio to parent is on record?
Answer: ~0.27

Question: How did the ratio to parent turn out when chain 2 Q12A was run?
Answer: ~0.69

Question: chain 2 R8E was tested. Which ratio to parent did it give?
Answer: ~4.7
